From PMC6344544, “Illuminating the catalytic core of ectoine synthase through structural and biochemical analysis” (Scientific Reports, 2019)

Key:
[1] = biological target: T1, ectoine synthase (Pl)EctC (Paenibacillus lautus, UniProt A0A1R1AV52); test: X-ray crystal structure ([…] Å); format: binding
T1 construct: full-length (130 amino acids), C-terminal Strep-tag II

[2] = biological target: Paenibacillus lautus ectoine synthase fused at its C-terminus to a Strep-tag II affinity peptide [(Pl)EctC-Strep-tag II] (Paenibacillus lautus Y4.12MC10); test: SEC-MALS; HPLC-MALS; 200 µl of purified (Pl)EctC protein (2 mg ml^-1) loaded onto a Bio SEC-5 HPLC column; measured mass 32.2 kDa against 15.87 kDa calculated for the monomer
purified protein = substrate: CC(=O)NCC[C@H](N)C(=O)O; test: purified protein; format: binding, Paenibacillus lautus; settings: Fe2+ active site in the cupin barrel; Trp-21, Arg-25, Asn-38, Thr-40, Tyr-52, Glu-57; acetamide oxygen coordinates the iron

In the case of CC1=N[C@H](C(=O)O)CCN1 [ectoine, (S)−2-methyl-1,4,5,6-tetrahydropyrimidine-4-carboxylic acid], the “X-ray crystal structure (2.5 Å)” value [1] is reported as “The ectoine molecule is coordinated within the active site of the (Pl)EctC enzyme through five direct interactions”.

“Paenibacillus lautus ectoine synthase fused at its C-terminus to a Strep-tag II affinity peptide [(Pl)EctC-Strep-tag II] (enzyme)” was tested, and the stoichiometry N [2] was 2.

B1: ectoine synthase (Pl)EctC (Paenibacillus lautus) (protein)
chain: MIVKHLEEIVDTKDDIDTKTWNSRRLLLTKDGMGFSLNDTLIKAGTETLIWYKNHVEAVYCIEGEGEIEVIGGETYPISPGMMYALDGHEKHYLRARSQMRMVCVFNPPLTGAEVHDEEGTYPLLAPISD
notes: full-length (130 amino acids), C-terminal Strep-tag II
Work on B1 yielded a Km (purified protein) of 7.8 mM.
